Reference: article doi:10.1101/2020.01.12.903617, “The peptide sensor motif stabilizes the outward-facing conformation of TmrAB” (bioRxiv, 2020)
No end group written: not given here. fluorescein = fluorescein label attached to the Cys side chain

Assays:
[1] = biological target: T1, TmrAB G116A^TmrB (Thermus thermophilus, UniProt Q72J05 1-600; Q72J04 1-578, G116A); assay: fluorescence polarisation; 1.7 uM TmrAB with 50 nM RRY(C^Fluorescein)KSTEL in SEC buffer (20 mM HEPES, 150 mM NaCl, pH 7, 0.05% ß-DDM), 15 minutes on ice, in the absence or presence of 5 mM ATP and 10 mM MgCl2; read at 25°C (the results say 4°C); signal normalized to WT without ATP; conditions: both partners purified
T1 construct: TmrA, Thermus thermophilus, the chain of TmrAB with the canonical Walker B motif; TmrB, Thermus thermophilus, the chain of TmrAB with the non-canonical Walker B motif
T1 sequence 1: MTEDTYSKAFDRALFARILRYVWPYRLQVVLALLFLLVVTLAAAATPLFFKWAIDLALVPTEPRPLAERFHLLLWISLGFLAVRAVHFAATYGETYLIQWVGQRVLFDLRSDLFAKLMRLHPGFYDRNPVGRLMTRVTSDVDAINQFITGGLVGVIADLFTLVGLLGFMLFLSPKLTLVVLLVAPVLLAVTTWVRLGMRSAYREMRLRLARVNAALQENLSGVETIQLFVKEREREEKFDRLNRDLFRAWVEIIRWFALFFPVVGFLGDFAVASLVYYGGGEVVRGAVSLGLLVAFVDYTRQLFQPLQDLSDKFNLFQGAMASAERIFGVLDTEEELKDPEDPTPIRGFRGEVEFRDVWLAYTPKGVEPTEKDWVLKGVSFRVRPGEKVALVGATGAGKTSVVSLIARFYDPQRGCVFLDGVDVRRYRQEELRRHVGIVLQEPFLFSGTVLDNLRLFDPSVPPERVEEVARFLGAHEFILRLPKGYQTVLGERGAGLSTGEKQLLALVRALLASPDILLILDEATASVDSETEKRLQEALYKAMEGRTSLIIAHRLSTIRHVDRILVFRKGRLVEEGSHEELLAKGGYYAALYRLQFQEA
T1 sequence 2: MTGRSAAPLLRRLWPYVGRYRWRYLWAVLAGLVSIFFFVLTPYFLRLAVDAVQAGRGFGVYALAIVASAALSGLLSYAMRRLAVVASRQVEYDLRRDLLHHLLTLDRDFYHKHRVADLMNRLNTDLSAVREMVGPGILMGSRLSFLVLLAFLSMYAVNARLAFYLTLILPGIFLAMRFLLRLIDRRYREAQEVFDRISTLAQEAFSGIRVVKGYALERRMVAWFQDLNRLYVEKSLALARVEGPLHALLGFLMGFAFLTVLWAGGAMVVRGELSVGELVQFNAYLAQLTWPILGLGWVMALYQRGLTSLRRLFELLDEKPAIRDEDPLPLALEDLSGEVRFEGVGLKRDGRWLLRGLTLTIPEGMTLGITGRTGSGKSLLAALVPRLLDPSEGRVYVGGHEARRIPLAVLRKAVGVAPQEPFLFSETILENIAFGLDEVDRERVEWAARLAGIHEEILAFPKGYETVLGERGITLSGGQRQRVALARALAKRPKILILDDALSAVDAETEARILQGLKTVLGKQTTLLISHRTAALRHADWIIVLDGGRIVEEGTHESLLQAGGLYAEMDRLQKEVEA

[2] = biological target: T2, TmrAB D140A^TmrA (Thermus thermophilus, UniProt Q72J05 1-600; Q72J04 1-578, D140A); assay: as above; conditions: both partners purified
T2 construct: TmrA, Thermus thermophilus, the chain of TmrAB with the canonical Walker B motif; TmrB, Thermus thermophilus, the chain of TmrAB with the non-canonical Walker B motif
T2 sequence 1: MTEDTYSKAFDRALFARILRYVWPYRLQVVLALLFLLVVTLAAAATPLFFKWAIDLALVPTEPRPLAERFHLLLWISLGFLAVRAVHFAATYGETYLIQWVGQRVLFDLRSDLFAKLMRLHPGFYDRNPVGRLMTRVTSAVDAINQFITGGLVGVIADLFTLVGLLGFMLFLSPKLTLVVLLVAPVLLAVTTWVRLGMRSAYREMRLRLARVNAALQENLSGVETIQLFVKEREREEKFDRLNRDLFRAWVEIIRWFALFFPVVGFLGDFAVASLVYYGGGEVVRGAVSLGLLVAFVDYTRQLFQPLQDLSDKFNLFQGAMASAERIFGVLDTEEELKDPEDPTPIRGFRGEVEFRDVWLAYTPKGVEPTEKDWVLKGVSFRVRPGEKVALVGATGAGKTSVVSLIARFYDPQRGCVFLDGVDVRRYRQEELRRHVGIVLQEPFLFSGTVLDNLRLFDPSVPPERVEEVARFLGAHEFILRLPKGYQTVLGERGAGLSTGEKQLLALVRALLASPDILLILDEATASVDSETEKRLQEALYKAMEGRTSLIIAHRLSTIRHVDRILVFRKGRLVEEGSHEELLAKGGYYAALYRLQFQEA
T2 sequence 2: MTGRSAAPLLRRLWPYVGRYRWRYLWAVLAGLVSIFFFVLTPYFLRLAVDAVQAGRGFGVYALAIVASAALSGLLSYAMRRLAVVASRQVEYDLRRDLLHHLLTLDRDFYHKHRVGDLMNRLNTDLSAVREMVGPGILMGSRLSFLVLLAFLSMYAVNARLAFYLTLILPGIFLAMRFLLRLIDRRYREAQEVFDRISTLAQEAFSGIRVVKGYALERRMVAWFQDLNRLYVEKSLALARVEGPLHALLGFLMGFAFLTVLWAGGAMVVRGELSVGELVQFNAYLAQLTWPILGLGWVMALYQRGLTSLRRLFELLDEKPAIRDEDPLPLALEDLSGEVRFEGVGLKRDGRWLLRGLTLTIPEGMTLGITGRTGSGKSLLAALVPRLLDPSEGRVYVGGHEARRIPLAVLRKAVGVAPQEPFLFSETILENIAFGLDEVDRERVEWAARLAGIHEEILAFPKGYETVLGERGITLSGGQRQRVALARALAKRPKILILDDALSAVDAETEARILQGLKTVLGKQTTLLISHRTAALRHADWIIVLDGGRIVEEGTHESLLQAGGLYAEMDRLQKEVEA

B1: fluorescent transport substrate peptide RRY(C^Fluorescein)KSTEL (peptide)
peptide: RRYC(fluorescein)KSTEL
notes: fluorescein-labelled transport substrate peptide of TmrAB; also called fluorescently-labeled peptide substrate; peptide substrate; source: bought: Genscript
[1]
  binding result: binds
[2]
  binding result: binds
